# Results: patent US20180030144A1 (INNATE PHARMA, published 2018)
# T1: human CD73 expressed at the cell surface (human, UniProt P21589 27-549)
# T1 construct: GPI-anchored dimer on cells; also called huCD73; cellular CD73
# T1 sequence: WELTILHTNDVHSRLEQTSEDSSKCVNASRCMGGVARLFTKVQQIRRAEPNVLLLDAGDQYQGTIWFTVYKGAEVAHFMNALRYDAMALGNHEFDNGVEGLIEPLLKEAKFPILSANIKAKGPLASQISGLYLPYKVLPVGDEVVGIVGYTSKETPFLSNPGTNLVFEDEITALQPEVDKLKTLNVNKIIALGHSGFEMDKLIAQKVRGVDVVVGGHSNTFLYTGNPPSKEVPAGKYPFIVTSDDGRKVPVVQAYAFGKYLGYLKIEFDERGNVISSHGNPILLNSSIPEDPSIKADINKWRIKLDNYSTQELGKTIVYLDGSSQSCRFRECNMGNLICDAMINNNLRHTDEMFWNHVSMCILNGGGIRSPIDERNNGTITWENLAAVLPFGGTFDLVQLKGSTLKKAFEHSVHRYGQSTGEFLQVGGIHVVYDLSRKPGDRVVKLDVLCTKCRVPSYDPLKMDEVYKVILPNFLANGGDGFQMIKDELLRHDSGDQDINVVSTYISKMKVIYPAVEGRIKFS
# Molecular target: T1, human CD73 expressed at the cell surface
# Test: flow cytometry titration on HEK293T cells transfected with wild type human CD73, mean of fluorescence
binder,measurement,value
"antibody 3C12 (antibody, human IgG1, V domains shown, Produced as chimeric human IgG1 with heavy chain N297Q (Kabat EU numbering); RTVAAP)) VH: QIQLQQSGPELVKPGASVKVSCKASGYAFASYNMNWVKQSHGKSLDWIGYIDPYNGGSSYNLTFKGKATLTVDKSSTTAYMHLNSLTSEDSAVYYCARGYGNYKAWFAYWGQGTLVTVSA VL: DVVMTQTPKFLLVSAGDRVTITCKASQSVSNDVAWYQQKPGQSPKLLIYYASTRYTGVPDRFTGSGYGTDFTFTISTVQAEDLAVYFCQQDYSSLTFGAGTKLELKR",EC50 (read off the curve),~0.2 µg/mL
